The text below walks through data of PMC9186069 (2022).

The target in this test is T1, active C1r (human, UniProt P00736).
T1 chain 1: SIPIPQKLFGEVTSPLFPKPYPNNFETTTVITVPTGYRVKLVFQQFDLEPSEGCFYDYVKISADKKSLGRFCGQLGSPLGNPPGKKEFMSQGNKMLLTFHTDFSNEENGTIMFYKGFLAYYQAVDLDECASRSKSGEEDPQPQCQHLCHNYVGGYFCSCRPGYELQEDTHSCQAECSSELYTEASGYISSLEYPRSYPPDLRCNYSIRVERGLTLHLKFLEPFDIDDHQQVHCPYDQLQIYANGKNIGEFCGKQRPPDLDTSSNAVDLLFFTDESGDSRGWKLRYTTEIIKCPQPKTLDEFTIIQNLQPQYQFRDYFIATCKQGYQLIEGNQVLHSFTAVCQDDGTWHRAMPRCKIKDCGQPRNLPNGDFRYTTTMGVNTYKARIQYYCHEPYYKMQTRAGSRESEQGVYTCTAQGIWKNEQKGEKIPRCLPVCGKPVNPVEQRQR
T1 chain 2: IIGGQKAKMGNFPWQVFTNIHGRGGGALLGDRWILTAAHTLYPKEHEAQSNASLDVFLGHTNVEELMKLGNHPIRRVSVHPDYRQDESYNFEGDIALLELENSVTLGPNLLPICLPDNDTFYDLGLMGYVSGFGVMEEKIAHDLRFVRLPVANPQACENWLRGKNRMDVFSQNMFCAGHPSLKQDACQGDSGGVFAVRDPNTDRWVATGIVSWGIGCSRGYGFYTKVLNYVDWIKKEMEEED
As to the kind of experiment: SPR. On the technique in general: In SPR one partner is held on a chip, and binding of the other changes the refractive index at the surface.

B1: FbpB-Δ5C (domain or fragment)
chain: GSTGSETRLDNQYKFNLNKTTNSVEQALKIAQQIKDDLDTIEFHRIKLSNHYGIRAEEHEKQTAKEELSKFSKDKLEADLKKLLCEIEKSLNAATILTTHNEYHYGGNLQSDLSAKTTLDTLKTEVSSLISKIQNSNNKDHQAYPTSYYNDYQSYQALRNPYSKLTLVK
modifications: activated two-chain form, cleaved between 463 and 464 (cleavage limits from UniProt chain features), heavy and light chains disulfide-linked; plasma-purified glycoprotein; native C1r forms a Ca-dependent-complex homodimer, but the paper does not state stoichiometry
Usually Kd stands for the equilibrium constant for the complex coming apart. A higher Kd goes with lower affinity. For the molecule B1, binding was put at a Kd of 2.1 nM.
